# In article PMC6113224, “Structural basis of cell wall peptidoglycan amidation by the GatD/MurT complex of Staphylococcus aureus” (Scientific Reports, 2018):
# T1: GatD (glutamine amidotransferase-like protein GatD of Staphylococcus aureus) (Staphylococcus aureus, UniProt A0A0H2WZ38 1-243)
# T1 construct: GatD, glutamine amidotransferase-like subunit of the GatD/MurT Lipid II amidation complex, Staphylococcus aureus; full length; source: E. coli BL21, co-expressed with MurT from pET21b (gatD/murT operon), purified (Ni-NTA, two rounds of SEC)
# T1 sequence (looked up): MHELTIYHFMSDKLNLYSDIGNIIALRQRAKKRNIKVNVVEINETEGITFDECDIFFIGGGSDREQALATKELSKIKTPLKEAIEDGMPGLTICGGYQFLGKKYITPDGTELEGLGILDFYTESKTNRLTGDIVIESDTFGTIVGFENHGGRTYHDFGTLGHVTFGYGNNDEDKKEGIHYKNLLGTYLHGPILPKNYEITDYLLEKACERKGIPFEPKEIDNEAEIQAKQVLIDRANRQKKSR
# B1: MurT (Mur ligase homolog MurT of Staphylococcus aureus) (enzyme, UniProt A0A0H2WZQ7 1-437, looked up)
# chain: MRQWTAIHLAKLARKASRAVGKRGTDLPGQIARKVDTDILRKLAEQVDDIVFISGTNGKTTTSNLIGHTLKANNIQIIHNNEGANMAAGITSAFIMQSTPKTKIAVIEIDEGSIPRVLKEVTPSMMVFTNFFRDQMDRFGEIDIMVNNIAETISNKGIKLLLNADDPFVSRLKIASDTIVYYGMKAHAHEFEQSTMNESRYCPNCGRLLQYDYIHYNQIGHYHCQCGFKREQAKYEISSFDVAPFLYLNINDEKYDMKIAGDFNAYNALAAYTVLRELGLNEQTIKNGFETYTSDNGRMQYFKKERKEAMINLAKNPAGMNASLSVGEQLEGEKVYVISLNDNAADGRDTSWIYDADFEKLSKQQIEAIIVTGTRAEELQLRLKLAEVEVPIIVERDIYKATAKTMDYKGFTVAIPNYTSLAPMLEQLNRSFEGGQS
# notes: MurT, Mur ligase homolog subunit of the GatD/MurT Lipid II amidation complex, Staphylococcus aureus; full length, untagged; MurT residues 1-35, 195-196 and 434-437 are not seen in the crystal structure
# Target: T1, GatD (glutamine amidotransferase-like …)
# Experiment: SAXS; two-fold dilution series 0.5 to 8 mg/mL of GatD/MurT in SEC II buffer, extrapolated to zero concentration; beamline P12, DESY
# Conditions: both partners purified
binder,measurement,value
B1,stoichiometry N,1
